This is an account of results in paper PMC7050210 (Nature, 2020).

Read-outs that look alike come from different tables or passages of the source. Non-standard residues stand in square brackets, D forms with d. No end group written: not given here. pS = N[C@@H](COP(=O)(O)O)C(=O)O

Experiment [1] deals with T1, β-TRCP1 (monomeric form, from residue 175 to C-terminus) (human, UniProt Q9Y297 175-605).
T1 sequence: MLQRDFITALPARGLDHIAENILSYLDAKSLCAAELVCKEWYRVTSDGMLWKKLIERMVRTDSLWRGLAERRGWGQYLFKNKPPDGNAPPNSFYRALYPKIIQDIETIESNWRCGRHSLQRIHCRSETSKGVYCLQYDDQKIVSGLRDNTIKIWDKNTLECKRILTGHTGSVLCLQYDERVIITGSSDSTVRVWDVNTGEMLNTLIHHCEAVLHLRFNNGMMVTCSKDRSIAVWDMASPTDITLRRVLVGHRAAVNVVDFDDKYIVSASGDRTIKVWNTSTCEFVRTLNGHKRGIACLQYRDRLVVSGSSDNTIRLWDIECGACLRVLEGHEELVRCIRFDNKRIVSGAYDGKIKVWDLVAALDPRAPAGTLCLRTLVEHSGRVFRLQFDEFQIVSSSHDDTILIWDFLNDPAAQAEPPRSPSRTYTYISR
Description: cryo-EM structure.

Experiment [2] deals with T1, β-TRCP1 (monomeric form, from residue …). Description: cryo-EM structure. The source holds these as a separate data set.

For the molecule KKERLLDDRHD[pS]GLD[pS]MKDEE [IκBα-derived phosphopeptide KKERLLDDRHD(pS)GLD(pS)MKDEE], in experiment [1], the binding result is recorded as “binds”.
Consider CKKERLLDDRHDSGLDSMKDEE [IκBα-derived substrate peptide with N-terminal Cys (cryo EM peptide)], for which, in experiment [2], the binding result was “binds”.
